What was measured:
Assay in all cases: cell_activity
FLP recombinase = conditions: substrate plasmid ad2879, 293 cells; 4.9 in Table 2 with vector control
FLPe (thermostable FLP) = conditions: substrate plasmid ad2879, 293 cells
[1] = system: Cre recombinase (bacteriophage P1); conditions: Ad2HCRGFP/EBV in HepG2, 72 h post infection, moi 1000
[2] = system: Cre-LBD (bacteriophage P1); conditions: type B provirus pk8-ad4332, +tamoxifen; 4.1 without
[3] = system: LBD-Cre-LBD (bacteriophage P1); conditions: type B provirus pk8-ad4626, +tamoxifen; 0.05 without

Substance	activity (mean GFP intensity) (FLP recombinase)	activity (mean GFP intensity) (FLPe (thermostable FLP))	activity (% genomes circularized (or more)) [1]	activity (arbitrary GFP intensity) [2]	activity (arbitrary GFP intensity) [3]
FRT site	0.01	2.39	–	–	–
loxP site	–	–	95	6	4.2
